Test results reported in paper PMC5263102.

Molecular target: chimeric FcεRI (human α, rat β/γ) on hRBL^rαKO cells (human | rat (endogenous in RBL-2H3)) (UniProt P12319)
Experiment: flow cytometry on cells

UniProt P12319, sequence (P12319 26-257, change not shown, chain 1 of 3): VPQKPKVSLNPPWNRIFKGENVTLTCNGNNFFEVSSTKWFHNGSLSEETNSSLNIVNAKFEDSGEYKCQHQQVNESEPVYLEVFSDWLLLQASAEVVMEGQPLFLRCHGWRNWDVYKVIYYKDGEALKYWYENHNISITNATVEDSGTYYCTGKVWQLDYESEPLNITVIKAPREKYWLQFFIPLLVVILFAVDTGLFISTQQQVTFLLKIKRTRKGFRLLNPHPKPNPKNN
UniProt P12319, sequence (P13386 whole entry, change not shown, chain 2 of 3, further chain): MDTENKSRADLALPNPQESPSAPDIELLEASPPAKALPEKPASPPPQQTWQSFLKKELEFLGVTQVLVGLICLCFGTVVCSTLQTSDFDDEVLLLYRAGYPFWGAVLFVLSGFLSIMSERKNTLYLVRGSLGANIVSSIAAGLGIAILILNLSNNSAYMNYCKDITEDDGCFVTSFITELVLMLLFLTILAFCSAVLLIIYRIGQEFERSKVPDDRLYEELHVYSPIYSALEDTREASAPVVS
UniProt P12319, sequence (P20411 19-86, change not shown, chain 3 of 3, further chain): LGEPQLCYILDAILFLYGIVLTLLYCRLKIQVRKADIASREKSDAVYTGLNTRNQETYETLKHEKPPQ

human IgE, Alexa 488-conjugated (hIgE^Alexa-488) (antibody)
% Receptor Occupied at 3.75 ng/ml IgE: 0.16%
% Receptor Occupied at 7.5 ng/ml IgE: 0.26%
% Receptor Occupied at 15 ng/ml IgE: 0.44%
% Receptor Occupied at 30 ng/ml IgE: 1.1%
% Receptor Occupied at 60 ng/ml IgE: 1.89%
% Receptor Occupied at 120 ng/ml IgE: 4%
% Receptor Occupied at 1000 ng/ml IgE: 28%
% Receptor Occupied at 4000 ng/ml IgE: 60%
% Receptor Occupied at 8000 ng/ml IgE: 78%
% Receptor Occupied at 10000 ng/ml IgE: 83%
% Receptor Occupied at 15000 ng/ml IgE: 93%
% Receptor Occupied at 20000 ng/ml IgE: 100%
koff: 1.53e-05 s⁻¹
kon: 6230 M⁻¹ s⁻¹
